The source of these data is paper PMC5994540.

To fix the notation:
B1: GluN3A subunit: PNGase F (protein)
parent chain: MRRLSLWWLLSRVCLLLPPPCALVLAGVPSSSSHPQPCQILKRIGHAVRVGAVHLQPWTTAPRAASRAQEGGRAGAQRDDPESGTWRPPAPSQGARWLGSALHGRGPPGSRKLGEGAGAETLWPRDALLFAVENLNRVEGLLPYNLSLEVVMAIEAGLGDLPLMPFSSPSSPWSSDPFSFLQSVCHTVVVQGVSALLAFPQSQGEMMELDLVSSVLHIPVLSIVRHEFPRESQNPLHLQLSLENSLSSDADVTVSILTMNNWYNFSLLLCQEDWNITDFLLLTENNSKFHLESVINITANLSSTKDLLSFLQVQMDNIRNSTPTMVMFGCDMDSIRQIFEMSTQFGLSPPELHWVLGDSQNVEELRTEGLPLGLIAHGKTTQSVFEYYVQDAMELVARAVATATMIQPELALLPSTMNCMDVKTTNLTSGQYLSRFLANTTFRGLSGSIKVKGSTIISSENNFFIWNLQHDPMGKPMWTRLGSWQGGRIVMDSGIWPEQAQRHKTHFQHPNKLHLRVVTLIEHPFVFTREVDDEGLCPAGQLCLDPMTNDSSMLDRLFSSLHSSNDTVPIKFKKCCYGYCIDLLEQLAEDMNFDFDLYIVGDGKYGAWKNGHWTGLVGDLLSGTANMAVTSFSINTARSQVIDFTSPFFSTSLGILVRTRDTAAPIGAFMWPLHWTMWLGIFVALHITAIFLTLYEWKSPFGMTPKGRNRNKVFSFSSALNVCYALLFGRTAAIKPPKCWTGRFLMNLWAIFCMFCLSTYTANLAAVMVGEKIYEELSGIHDPKLHHPSQGFRFGTVRESSAEDYVRQSFPEMHEYMRRYNVPATPDGVQYLKNDPEKLDAFIMDKALLDYEVSIDADCKLLTVGKPFAIEGYGIGLPPNSPLTSNISELISQYKSHGFMDVLHDKWYKVVPCGKRSFAVTETLQMGIKHFSGLFVLLCIGFGLSILTTIGEHIVHRLLLPRIKNKSKLQYWLHTSQRFHRALNTSFVEEKQPRSKTKRVEKSRWRRWTCKTEGDSELSLFPRSNLGPQQLMVWNTSNLSHDNQRKYIFNDEEGQNQLGTQAHQDIPLPQRRRELPASLTTNGKADSLNVTRSSVIQELSELEKQIQVIRQELQLAVSRKTELEEYQKTNRTCES
B2: GluN3A subunit: GluN3A-1/4N→Q (protein)
parent chain: B1 parent chain
B3: GluN3A subunit: GluN3A-12N→12Q (protein)
parent chain: B1 parent chain
B4: GluN3A subunit: GluN3A-1/2N→Q (protein)
parent chain: B1 parent chain
B5: GluN3A subunit: GluN3A-2/2N→Q (protein)
parent chain: B1 parent chain
B6: GluN3A subunit: N320Q (protein)
parent chain: B1 parent chain
B7: GluN3A subunit: GluN3A-4/4N→Q (protein)
parent chain: B1 parent chain
B8: GluN3A subunit: N145Q (protein)
parent chain: B1 parent chain
B9: GluN3A subunit: N886Q (protein)
parent chain: B1 parent chain
B10: GluN3A subunit: N275Q (protein)
parent chain: B1 parent chain
B11: GluN3A subunit: GluN3A-3/4N→Q (protein)
parent chain: B1 parent chain
B12: GluN3A subunit: N565Q (protein)
parent chain: B1 parent chain
B13: GluN3A subunit: N296Q (protein)
parent chain: B1 parent chain
B14: GluN3A subunit: N300Q (protein)
parent chain: B1 parent chain
B15: GluN3A subunit: N264Q (protein)
parent chain: B1 parent chain
B16: GluN3A subunit: N439Q (protein)
parent chain: B1 parent chain
B17: GluN3A subunit: N285Q (protein)
parent chain: B1 parent chain
B18: GluN3A subunit: N426Q (protein)
parent chain: B1 parent chain
B19: GluN3A subunit: GluN3A-2/4N→Q (protein)
parent chain: B1 parent chain
B20: GluN3A subunit: N549Q (protein)
parent chain: B1 parent chain
B21: GluN3A subunit: DPAGT1-CDG (protein)
parent chain: B1 parent chain
B22: GluN3A subunit: ALG8-CDG (protein)
parent chain: B1 parent chain
B23: GluN3A subunit: kifunensine (protein)
parent chain: B1 parent chain
B24: GluN3A subunit: DNJ (protein)
parent chain: B1 parent chain
B25: GluN3A subunit: DMM (protein)
parent chain: B1 parent chain
B26: GluN3A subunit: swainsonine (protein)
parent chain: B1 parent chain
B27: GluN3A subunit: tunicamycin (protein)
parent chain: B1 parent chain

The nature of the first data set: whole-cell patch clamp, 500 μM glycine, HEK293. The following applies: glycan lost; control: wild-type GluN1/GluN3A, untreated. On the technique in general: Patch clamp records ionic current or voltage across a cell membrane.
As for B1, the “other: channel desensitisation (τw), other: τw of desensitization” value is “no change”.
As for B2, the “other: channel desensitisation (τw), other: τw of desensitization” value was “no change”.

A short description of another data set: surface/total GFP immunofluorescence, hippocampal neuron dendrites. The following applies: glycan lost; control: wild-type GluN3A.
Turning to B3, the localisation_or_trafficking result is recorded as “decreases”.
On the same count and under the same terms, with B4 the entry was “decreases”.
For the protein B5, the localisation_or_trafficking result is “no change”.
On to B2, for which the localisation_or_trafficking result is “decreases”.

The nature of the next data set: surface/total immunofluorescence, COS-7, with GluN1-4a. The following applies: glycan lost; control: wild-type GluN1/GluN3A.
As to B3, the localisation_or_trafficking entry is on record as “abolishes”.
Consider B6, for which the localisation_or_trafficking entry is “no change”.
The same measure, in the same setting: with B4 the entry was “decreases”.
The same measure, in the same setting: for B7 the value was “no change”.
In the case of B8, the localisation_or_trafficking entry was “no change”.
Turning to B9, the localisation_or_trafficking entry is recorded as “no change”.
Still for that read-out and setting: for B10 the value was “no change”.
For B11, the localisation_or_trafficking result is “no change”.
B5: the localisation_or_trafficking result is recorded as “no change”.
The same measure, in the same setting: with B12 the entry was “no change”.
Still for that read-out and setting: with B13 the entry was “no change”; with B2, “decreases”.
Turning to B14, the localisation_or_trafficking result is on record as “no change”.
The same measure, in the same setting: for B15 the value was “no change”.
With B16, the localisation_or_trafficking entry is “no change”.
Still for that read-out and setting: for B17 the value was “no change”.
The same measure, in the same setting: with B18 the entry was “no change”; with B19, “no change”.
Regarding B20, the localisation_or_trafficking result was “no change”.

The nature of the next data set: surface immunofluorescence, GluN1/GluN3A in human CDG patient fibroblasts. The following applies: glycan lost; control: control fibroblasts.
With B21, the localisation_or_trafficking result is reported as “no change”.
B22: the localisation_or_trafficking result was “decreases”.

The next data set can be described thus: surface biotinylation, endogenous GluN3A, rat hippocampal neurons. The following applies: glycan changed form; control: untreated.
For the protein B23, the localisation_or_trafficking entry was “no change”.
Take B24: the localisation_or_trafficking entry was “no change”.
As to B25, the localisation_or_trafficking entry is “no change”.
As for B26, the localisation_or_trafficking result is recorded as “no change”.

The same data set, now with this note: glycan lost; control: untreated.
For the protein B27, the localisation_or_trafficking result is reported as “decreases”.

Another data set can be described thus: spine/shaft GFP fluorescence ratio, hippocampal neurons. The following applies: glycan lost; control: wild-type GluN3A.
For B3, the localisation_or_trafficking result is “decreases”.
On the same count and under the same terms, with B2 the entry was “decreases”.

A further data set is described as follows: surface immunofluorescence, GluN1/GluN3A in COS-7. The following applies: glycan changed form; control: untreated.
For the protein B23, the localisation_or_trafficking result was “no change”.
With B24, the localisation_or_trafficking entry is recorded as “no change”.
Take B25: the localisation_or_trafficking result is given as “no change”.
Same read-out and setting: with B26 the entry was “no change”.

Staying with this data set, now noted: glycan lost; control: untreated.
Take B27: the localisation_or_trafficking entry was “decreases”.

The nature of another data set: surface/total GFP immunofluorescence, GFP-GluN3A in hippocampal neurons. The following applies: glycan changed form; control: untreated.
For B23, the localisation_or_trafficking entry was “no change”.
For the protein B24, the localisation_or_trafficking entry was “no change”.
As for B25, the localisation_or_trafficking entry is listed as “no change”.
With B26, the localisation_or_trafficking result is listed as “no change”.

Staying with this data set, now noted: glycan lost; control: untreated.
With B27, the localisation_or_trafficking result is “decreases”.
